The values that follow come from the supplement of paper PMC9112550, “Optimization of the antimicrobial peptide Bac7 by deep mutational scanning” (BMC Biology, 2022).

In the data set the test system is Escherichia coli TOP10. The data set can be described thus: shrunken log2 fold change of peptide-encoding DNA abundance (4.5 h post-induction vs induction); higher = less antimicrobial activity (less host growth inhibition). To be noted: time post-induction: 4.5 h; library: site-saturation at positions 5, 18, 19, 20.
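Note: peptides expressed intracellularly from a pBAD plasmid library in pooled LB shake-flask culture, induced with 0.3% L-arabinose, DNA abundance read by NGS, three biological replicates, DESeq2 with apeglm shrinkage.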

Regarding RRIRERPPRLPRPRPRPCYGPRP, the “shrunken log2 fold change” value is -0.274.
RRIRWRPPRLPRPRPRPLDQPRP: the “shrunken log2 fold change” value is -0.0549.
For RRIRERPPRLPRPRPRPHCSPRP the value was -0.279; for RRIRIRPPRLPRPRPRPAEPPRP, -0.21.
As to RRIRERPPRLPRPRPRPLQIPRP, the “shrunken log2 fold change” value is -0.0796.
As for RRIRKRPPRLPRPRPRPAVTPRP, the “shrunken log2 fold change” value was 0.0318.
For the sequence RRIRVRPPRLPRPRPRPHFCPRP, the “shrunken log2 fold change” value is -0.0628.
For the sequence RRIRWRPPRLPRPRPRPRMGPRP, the “shrunken log2 fold change” value turned out to be 0.357.
Consider RRIRSRPPRLPRPRPRPMSCPRP, for which the “shrunken log2 fold change” value was -0.067.
For RRIRFRPPRLPRPRPRPMAQPRP the value was -0.337.
On to RRIRPRPPRLPRPRPRPGPTPRP, for which the “shrunken log2 fold change” value is 0.0907.
As to RRIRYRPPRLPRPRPRPIIHPRP, the “shrunken log2 fold change” value was -1.21.
As for RRIRHRPPRLPRPRPRPDSVPRP, the “shrunken log2 fold change” value is -0.117.
In the case of RRIRIRPPRLPRPRPRPDRKPRP, the “shrunken log2 fold change” value is -0.0167.
In the case of RRIRGRPPRLPRPRPRPQYFPRP, the “shrunken log2 fold change” value was -0.141.
RRIRNRPPRLPRPRPRPTQTPRP: the “shrunken log2 fold change” value is -0.0444.
As for RRIRHRPPRLPRPRPRPQKSPRP, the “shrunken log2 fold change” value is -0.138.
Consider RRIRPRPPRLPRPRPRPAVHPRP, for which the “shrunken log2 fold change” value is 0.0984.
With RRIRIRPPRLPRPRPRPDWMPRP, the “shrunken log2 fold change” value was -0.131.
On to RRIRGRPPRLPRPRPRPHDAPRP, for which the “shrunken log2 fold change” value was found to be 0.00554.
Consider RRIRKRPPRLPRPRPRPLYAPRP, for which the “shrunken log2 fold change” value was 0.0609.
With RRIRIRPPRLPRPRPRPDEPPRP, the “shrunken log2 fold change” value is 0.115.
As to RRIRFRPPRLPRPRPRPWATPRP, the “shrunken log2 fold change” value was determined as 0.0109.
As for RRIRPRPPRLPRPRPRPYYKPRP, the “shrunken log2 fold change” value is -0.215.
As for RRIRIRPPRLPRPRPRPIDNPRP, the “shrunken log2 fold change” value was -0.0769.
The result for RRIRLRPPRLPRPRPRPPGEPRP reads 0.196; that for RRIRFRPPRLPRPRPRPLYKPRP, -0.813.
With RRIRARPPRLPRPRPRPEHDPRP, the “shrunken log2 fold change” value was -0.0905.
As to RRIRDRPPRLPRPRPRPHMKPRP, the “shrunken log2 fold change” value is -0.467.
As to RRIRYRPPRLPRPRPRPETCPRP, the “shrunken log2 fold change” value was -0.00674.
The result for RRIRERPPRLPRPRPRPMHDPRP reads -0.286; that for RRIRVRPPRLPRPRPRPHLEPRP, -0.133; that for RRIRVRPPRLPRPRPRPREMPRP, 0.0631.
Turning to RRIRHRPPRLPRPRPRPAQFPRP, the “shrunken log2 fold change” value was -0.0111.
The result for RRIRRRPPRLPRPRPRPGFHPRP reads 0.0982.
As for RRIRIRPPRLPRPRPRPYWVPRP, the “shrunken log2 fold change” value was 0.0603.
RRIRHRPPRLPRPRPRPDRPPRP: the “shrunken log2 fold change” value was -0.184.
For the sequence RRIRHRPPRLPRPRPRPAWFPRP, the “shrunken log2 fold change” value came to 0.211.
On to RRIRCRPPRLPRPRPRPGIVPRP, for which the “shrunken log2 fold change” value is -0.0688.
The result for RRIRSRPPRLPRPRPRPHTDPRP reads -0.216; that for RRIRARPPRLPRPRPRPWASPRP, -0.145; that for RRIRDRPPRLPRPRPRPDFNPRP, -0.188.
Regarding RRIRPRPPRLPRPRPRPDSGPRP, the “shrunken log2 fold change” value was 0.0463.
RRIRMRPPRLPRPRPRPHWPPRP: the “shrunken log2 fold change” value was 1.1.
The result for RRIRERPPRLPRPRPRPHADPRP reads 0.0454; that for RRIRWRPPRLPRPRPRPAHNPRP, 0.352.
Turning to RRIRMRPPRLPRPRPRPVHWPRP, the “shrunken log2 fold change” value stood at 0.155.
RRIRWRPPRLPRPRPRPIVHPRP: the “shrunken log2 fold change” value is -0.175.
Take RRIRPRPPRLPRPRPRPQVEPRP: the “shrunken log2 fold change” value amounted to 0.102.
For RRIRMRPPRLPRPRPRPDIMPRP the value was 2.19; for RRIRHRPPRLPRPRPRPDVSPRP, -0.198.
On to RRIRGRPPRLPRPRPRPNQYPRP, for which the “shrunken log2 fold change” value is -0.166.
As to RRIRARPPRLPRPRPRPQDWPRP, the “shrunken log2 fold change” value was 0.556.
On to RRIRMRPPRLPRPRPRPGPTPRP, for which the “shrunken log2 fold change” value came out at 1.54.
On to RRIRKRPPRLPRPRPRPWATPRP, for which the “shrunken log2 fold change” value came out at 0.546.
Consider RRIRCRPPRLPRPRPRPALTPRP, for which the “shrunken log2 fold change” value was found to be 0.224.
For the sequence RRIRPRPPRLPRPRPRPWHMPRP, the “shrunken log2 fold change” value was -0.0632.
As to RRIRNRPPRLPRPRPRPRFMPRP, the “shrunken log2 fold change” value is -0.098.
With RRIRMRPPRLPRPRPRPPRNPRP, the “shrunken log2 fold change” value was found to be 1.27.
In the case of RRIRWRPPRLPRPRPRPICPPRP, the “shrunken log2 fold change” value was -0.0872.
For the sequence RRIRKRPPRLPRPRPRPPAGPRP, the “shrunken log2 fold change” value was found to be 0.989.
The result for RRIRWRPPRLPRPRPRPAVFPRP reads 0.354; that for RRIRTRPPRLPRPRPRPISCPRP, 0.0135; that for RRIRRRPPRLPRPRPRPTCCPRP, 0.397.
In the case of RRIRQRPPRLPRPRPRPFFIPRP, the “shrunken log2 fold change” value is -0.365.
Consider RRIRRRPPRLPRPRPRPMTFPRP, for which the “shrunken log2 fold change” value was determined as 0.164.
Regarding RRIRSRPPRLPRPRPRPLWCPRP, the “shrunken log2 fold change” value was 0.148.
With RRIRNRPPRLPRPRPRPKGNPRP, the “shrunken log2 fold change” value is -0.00941.
In the case of RRIRLRPPRLPRPRPRPLRQPRP, the “shrunken log2 fold change” value worked out at 0.385.
For the sequence RRIRERPPRLPRPRPRPMAAPRP, the “shrunken log2 fold change” value came out at 0.421.
RRIRMRPPRLPRPRPRPYFFPRP: the “shrunken log2 fold change” value is -0.175.
On to RRIRWRPPRLPRPRPRPNQEPRP, for which the “shrunken log2 fold change” value was -0.119.
For RRIRVRPPRLPRPRPRPAYNPRP the value was -0.394; for RRIRIRPPRLPRPRPRPTACPRP, 0.0015; for RRIRVRPPRLPRPRPRPNICPRP, 0.27.
On to RRIRNRPPRLPRPRPRPNALPRP, for which the “shrunken log2 fold change” value is -0.134.
Consider RRIRSRPPRLPRPRPRPQREPRP, for which the “shrunken log2 fold change” value is -0.019.
With RRIRGRPPRLPRPRPRPTWKPRP, the “shrunken log2 fold change” value is 0.847.
For the sequence RRIRARPPRLPRPRPRPQADPRP, the “shrunken log2 fold change” value was -0.119.
With RRIRARPPRLPRPRPRPVMFPRP, the “shrunken log2 fold change” value was 0.283.
Turning to RRIRPRPPRLPRPRPRPSTVPRP, the “shrunken log2 fold change” value is -0.687.
Take RRIRKRPPRLPRPRPRPQMEPRP: the “shrunken log2 fold change” value was -0.0377.
The result for RRIRGRPPRLPRPRPRPMYHPRP reads -0.242; that for RRIRPRPPRLPRPRPRPITWPRP, -0.0578; that for RRIRFRPPRLPRPRPRPADVPRP, 0.258.
As to RRIRVRPPRLPRPRPRPWLVPRP, the “shrunken log2 fold change” value turned out to be 0.128.
With RRIRERPPRLPRPRPRPPFMPRP, the “shrunken log2 fold change” value was -0.185.
As for RRIRPRPPRLPRPRPRPNMLPRP, the “shrunken log2 fold change” value is -0.367.
For the sequence RRIRRRPPRLPRPRPRPMIGPRP, the “shrunken log2 fold change” value was -0.041.
On to RRIRGRPPRLPRPRPRPYQIPRP, for which the “shrunken log2 fold change” value is -0.118.
For RRIRKRPPRLPRPRPRPLMSPRP the value was 0.0201; for RRIRGRPPRLPRPRPRPVWLPRP, 0.649; for RRIRHRPPRLPRPRPRPANMPRP, -0.126.
Turning to RRIRMRPPRLPRPRPRPNITPRP, the “shrunken log2 fold change” value amounted to 0.314.
Take RRIRRRPPRLPRPRPRPLDRPRP: the “shrunken log2 fold change” value is -0.00997.
With RRIRLRPPRLPRPRPRPSESPRP, the “shrunken log2 fold change” value was -0.244.
On to RRIRQRPPRLPRPRPRPEVFPRP, for which the “shrunken log2 fold change” value is 0.0304.
Regarding RRIRARPPRLPRPRPRPSVCPRP, the “shrunken log2 fold change” value turned out to be 0.348.
With RRIRVRPPRLPRPRPRPIWSPRP, the “shrunken log2 fold change” value came to 0.0334.
With RRIRQRPPRLPRPRPRPAKVPRP, the “shrunken log2 fold change” value was 0.325.
The result for RRIRLRPPRLPRPRPRPGLSPRP reads 0.00141; that for RRIRSRPPRLPRPRPRPEEDPRP, -0.00277.
As for RRIRLRPPRLPRPRPRPYCVPRP, the “shrunken log2 fold change” value was -0.622.
As for RRIRHRPPRLPRPRPRPCPAPRP, the “shrunken log2 fold change” value is -0.231.
For RRIRFRPPRLPRPRPRPQWFPRP the value was -0.344; for RRIRTRPPRLPRPRPRPLQRPRP, -0.063.
On to RRIRQRPPRLPRPRPRPTFRPRP, for which the “shrunken log2 fold change” value is -0.232.
Take RRIRNRPPRLPRPRPRPWSVPRP: the “shrunken log2 fold change” value was -0.328.
For RRIRRRPPRLPRPRPRPTKPPRP the value was 0.541.
In the case of RRIRDRPPRLPRPRPRPFAHPRP, the “shrunken log2 fold change” value came to 0.228.
As for RRIRGRPPRLPRPRPRPAYEPRP, the “shrunken log2 fold change” value was 0.457.
In the case of RRIRDRPPRLPRPRPRPCFHPRP, the “shrunken log2 fold change” value was -0.336.
With RRIRFRPPRLPRPRPRPYKLPRP, the “shrunken log2 fold change” value is -0.438.
RRIRIRPPRLPRPRPRPSRIPRP: the “shrunken log2 fold change” value is -0.0712.
Turning to RRIRCRPPRLPRPRPRPVVTPRP, the “shrunken log2 fold change” value was -0.0488.
As for RRIRDRPPRLPRPRPRPPPYPRP, the “shrunken log2 fold change” value was -0.0814.
With RRIRCRPPRLPRPRPRPMCIPRP, the “shrunken log2 fold change” value was -0.146.
On to RRIRCRPPRLPRPRPRPQKNPRP, for which the “shrunken log2 fold change” value is -0.281.
Consider RRIRTRPPRLPRPRPRPTPGPRP, for which the “shrunken log2 fold change” value is 0.296.
As for RRIRKRPPRLPRPRPRPIWNPRP, the “shrunken log2 fold change” value is -0.0253.
Consider RRIRKRPPRLPRPRPRPYYYPRP, for which the “shrunken log2 fold change” value was -0.704.
As for RRIRQRPPRLPRPRPRPPTLPRP, the “shrunken log2 fold change” value is -4.2e-05.
For the sequence RRIRLRPPRLPRPRPRPQWWPRP, the “shrunken log2 fold change” value is 0.491.
On to RRIRCRPPRLPRPRPRPTIYPRP, for which the “shrunken log2 fold change” value was -0.644.
On to RRIRPRPPRLPRPRPRPAFTPRP, for which the “shrunken log2 fold change” value is -0.0147.
